These results are taken from patent publication US20230220042A1 (SHANGHAI JIAO TONG UNIVERSITY SCHOOL OF MEDICINE, published 2023).

T1: Biotin-FcγRIIB (human FcγRIIB, Sino Biological) (human, UniProt P31994 43-217, limits assumed, biotin-labeled)
T1 construct: Used at 1 µg/ml with Streptavidin-APC for flow cytometry and sorting; also called CD32b
T1 sequence (looked up): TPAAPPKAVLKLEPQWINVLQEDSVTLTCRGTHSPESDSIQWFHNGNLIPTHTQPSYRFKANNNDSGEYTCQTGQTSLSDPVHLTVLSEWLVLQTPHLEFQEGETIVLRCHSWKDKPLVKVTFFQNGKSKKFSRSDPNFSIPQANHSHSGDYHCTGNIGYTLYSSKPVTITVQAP

B1: human IgG2 anti-mouse CD40 surface displayed antibody, H268D (antibody, name in EU numbering)
light chain (with the P2A rest): DTVLTQSPALAVSPGERVTISCRASDSVSTLMHWYQQKPGQQPKLLIYLASHLESGVPARFSGSGSGTDFTLTIDPVEADDTATYYCQQSWNDPWTFGGGTKLELKRTVAAPSVFIFPPSDEQLKSGTASVVCLLNNFYPREAKVQWKVDNALQSGNSQESVTEQDSKDSTYSLSSTLTLSKADYEKHKVYACEVTHQGLSSPVTKSFNRGECGSGATNFSLLKQAGDVEENPG
heavy chain: EVQLVESDGGLVQPGRSLKLPCAASGFTFSDYYMAWVRQAPTKGLEWVASISYDGSSTYYRDSVKGRFTISRDNAKSTLYLQMDSLRSEDTATYYCGRHSSYFDYWGQGVMVTVSSASTKGPSVFPLAPCSRSTSESTAALGCLVKDYFPEPVTVSWNSGALTSGVHTFPAVLQSSGLYSLSSVVTVPSSNFGTQTYTCNVDHKPSNTKVDKTVERKCCVECPPCPAPPVAGPSVFLFPPKPKDTLMISRTPEVTCVVVDVSDEDPEVQFNWYVDGVEVHNAKTKPREEQFNSTFRVVSVLTVVHQDWLNGKEYKCKVSNKGLPAPIEKTISKTKGQPREPQVYTLPPSREEMTKNQVSLTCLVKGFYPSDIAVEWESNGQPENNYKTTPPMLDSDGSFFLYSKLTVDKSRWQQGNVFSCSVMHEALHNHYTQKSLSLSPGKLEPPPSTVSNMATVAVLVVLGAAIVTGAVVAFVMKMRRRNTGGKGGDYALAPGSQTSDLSLPDCKVMVHDPHSLA
notes: m1 with this Fc mutation (Eu numbering); copies: 2 + 2
B2: human IgG2 anti-mouse CD40 surface displayed antibody, S267Q (antibody, name in EU numbering)
light chain (with the P2A rest): B1 light chain (with the P2A rest)
heavy chain: B1 heavy chain with S262Q, D263H
notes: as for B1
B3: human IgG2 anti-mouse CD40 surface displayed antibody, S267E/P271W (antibody, name in EU numbering)
light chain (with the P2A rest): B1 light chain (with the P2A rest)
heavy chain: B1 heavy chain with S262E, D263H, P266W
notes: m1 with these Fc mutations (Eu numbering); copies: 2 + 2
B4: human IgG2 anti-mouse CD40 surface displayed antibody, H268K (antibody, name in EU numbering)
light chain (with the P2A rest): B1 light chain (with the P2A rest)
heavy chain: B1 heavy chain with D263K
notes: as for B1
B5: human IgG2 anti-mouse CD40 surface displayed antibody, S267E/P271Y (antibody, name in EU numbering)
light chain (with the P2A rest): B1 light chain (with the P2A rest)
heavy chain: B1 heavy chain with S262E, D263H, P266Y
notes: as for B3
B6: human IgG2 anti-mouse CD40 surface displayed antibody, P271C (antibody, name in EU numbering)
light chain (with the P2A rest): B1 light chain (with the P2A rest)
heavy chain: B1 heavy chain with D263H, P266C
notes: as for B1
B7: human IgG2 anti-mouse CD40 surface displayed antibody, S267G (antibody, name in EU numbering)
light chain (with the P2A rest): B1 light chain (with the P2A rest)
heavy chain: B1 heavy chain with S262G, D263H
notes: as for B1
B8: human IgG2 anti-mouse CD40 surface displayed antibody, S267E/P271V (antibody, name in EU numbering)
light chain (with the P2A rest): B1 light chain (with the P2A rest)
heavy chain: B1 heavy chain with S262E, D263H, P266V
notes: as for B3
B9: human IgG2 anti-mouse CD40 surface displayed antibody, V266A/P271C (antibody, name in EU numbering)
light chain (with the P2A rest): B1 light chain (with the P2A rest)
heavy chain: B1 heavy chain with V261A, D263H, P266C
notes: as for B3
B10: human IgG2 anti-mouse CD40 surface displayed antibody, S267E/P271C (antibody, name in EU numbering)
light chain (with the P2A rest): B1 light chain (with the P2A rest)
heavy chain: B1 heavy chain with S262E, D263H, P266C
notes: as for B3
B11: human IgG2 anti-mouse CD40 surface displayed antibody, S267M/P271G (antibody, name in EU numbering)
light chain (with the P2A rest): B1 light chain (with the P2A rest)
heavy chain: B1 heavy chain with S262M, D263H, P266G
notes: as for B3
B12: human IgG2 anti-mouse CD40 surface displayed antibody, H268E (antibody, name in EU numbering)
light chain (with the P2A rest): B1 light chain (with the P2A rest)
heavy chain: B1 heavy chain with D263E
notes: as for B1
B13: human IgG2 anti-mouse CD40 surface displayed antibody, S267M/P271C (antibody, name in EU numbering)
light chain (with the P2A rest): B1 light chain (with the P2A rest)
heavy chain: B1 heavy chain with S262M, D263H, P266C
notes: as for B3
B14: human IgG2 anti-mouse CD40 surface displayed antibody, S267M (antibody, name in EU numbering)
light chain (with the P2A rest): B1 light chain (with the P2A rest)
heavy chain: B1 heavy chain with S262M, D263H
notes: as for B1
B15: human IgG2 anti-mouse CD40 surface displayed antibody, S267A/P271C (antibody, name in EU numbering)
light chain (with the P2A rest): B1 light chain (with the P2A rest)
heavy chain: B1 heavy chain with S262A, D263H, P266C
notes: as for B3
B16: human IgG2 anti-mouse CD40 surface displayed antibody, V266A/P271G (antibody, name in EU numbering)
light chain (with the P2A rest): B1 light chain (with the P2A rest)
heavy chain: B1 heavy chain with V261A, D263H, P266G
notes: as for B3
B17: human IgG2 anti-mouse CD40 surface displayed antibody, S267E/D270H (antibody, name in EU numbering)
light chain (with the P2A rest): B1 light chain (with the P2A rest)
heavy chain: B1 heavy chain with S262E, D263H, D265H
notes: as for B3
B18: human IgG2 anti-mouse CD40 surface displayed antibody, S267D (antibody, name in EU numbering)
light chain (with the P2A rest): B1 light chain (with the P2A rest)
heavy chain: B1 heavy chain with S262D, D263H
notes: as for B1
B19: human IgG2 anti-mouse CD40 surface displayed antibody, S267A/P271G (antibody, name in EU numbering)
light chain (with the P2A rest): B1 light chain (with the P2A rest)
heavy chain: B1 heavy chain with S262A, D263H, P266G
notes: as for B3
B20: human IgG2 anti-mouse CD40 surface displayed antibody, S267A (antibody, name in EU numbering)
light chain (with the P2A rest): B1 light chain (with the P2A rest)
heavy chain: B1 heavy chain with S262A, D263H
notes: as for B1
B21: human IgG2 anti-mouse CD40 surface displayed antibody, S267V/S298L (antibody, name in EU numbering)
light chain (with the P2A rest): B1 light chain (with the P2A rest)
heavy chain: B1 heavy chain with S262V, D263H, S293L
notes: as for B3
B22: human IgG2 anti-mouse CD40 surface displayed antibody, P271G/T299S (antibody, name in EU numbering)
light chain (with the P2A rest): B1 light chain (with the P2A rest)
heavy chain: B1 heavy chain with D263H, P266G, T294S
notes: as for B3
B23: human IgG2 anti-mouse CD40 surface displayed antibody, S267R (antibody, name in EU numbering)
light chain (with the P2A rest): B1 light chain (with the P2A rest)
heavy chain: B1 heavy chain with S262R, D263H
notes: as for B1
B24: human IgG2 anti-mouse CD40 surface displayed antibody, S267E (antibody, name in EU numbering)
light chain (with the P2A rest): B1 light chain (with the P2A rest)
heavy chain: B1 heavy chain with S262E, D263H
notes: as for B1
B25: human IgG2 anti-mouse CD40 surface displayed antibody, P271Q (antibody, name in EU numbering)
light chain (with the P2A rest): B1 light chain (with the P2A rest)
heavy chain: B1 heavy chain with D263H, P266Q
notes: as for B1
B26: human IgG2 anti-mouse CD40 surface displayed antibody, S267E/S298R (antibody, name in EU numbering)
light chain (with the P2A rest): B1 light chain (with the P2A rest)
heavy chain: B1 heavy chain with S262E, D263H, S293R
notes: as for B3
B27: human IgG2 anti-mouse CD40 surface displayed antibody, P271G/T299W (antibody, name in EU numbering)
light chain (with the P2A rest): B1 light chain (with the P2A rest)
heavy chain: B1 heavy chain with D263H, P266G, T294W
notes: as for B3
B28: human IgG2 anti-mouse CD40 surface displayed antibody, S298L (antibody, name in EU numbering)
light chain (with the P2A rest): B1 light chain (with the P2A rest)
heavy chain: B1 heavy chain with D263H, S293L
notes: as for B1

Numbering of substitutions follows the chain as printed. Numbers in names are those of the source.

One test addresses T1, Biotin-FcγRIIB (human FcγRIIB, Sino …). As to the kind of experiment: NGS after FACS sort of 3T3-displayed Library2 for biotin-FcγRIIB binding.
For the molecule B1, the “Enrichment factor (percentage after sorting/percentage before sorting)” value worked out at 1.54 and the “Increased factor (enrichment factor/wild-type enrichment factor)” value came out at 2.68.
For B2 the same measures were 8.64 and 15.1.
In the case of B3, the “Enrichment factor (percentage after sorting/percentage before sorting)” value amounted to 24 and the “Increased factor (enrichment factor/wild-type enrichment factor)” value amounted to 41.8.
Turning to B4, the “Enrichment factor (percentage after sorting/percentage before sorting)” value stood at 1.32 and the “Increased factor (enrichment factor/wild-type enrichment factor)” value is 2.31.
For the molecule B5, the “Enrichment factor (percentage after sorting/percentage before sorting)” value is 19.2 and the “Increased factor (enrichment factor/wild-type enrichment factor)” value was 33.4.
For B6 the same measures were 17.1 and 29.9.
Turning to B7, the “Enrichment factor (percentage after sorting/percentage before sorting)” value was 1.79 and the “Increased factor (enrichment factor/wild-type enrichment factor)” value was found to be 3.5.
In the case of B8, the “Enrichment factor (percentage after sorting/percentage before sorting)” value came out at 22.1 and the “Increased factor (enrichment factor/wild-type enrichment factor)” value amounted to 38.4.
For B9, in that order: 42.2 and 73.5.
For B10, the “Enrichment factor (percentage after sorting/percentage before sorting)” value is 1000 and the “Increased factor (enrichment factor/wild-type enrichment factor)” value is 1740.
For B11, in that order: 4.31 and 7.52.
For B12 the same measures were 1.69 and 2.94.
For B13 the same measures were 32.1 and 56.
In the case of B14, the “Enrichment factor (percentage after sorting/percentage before sorting)” value was determined as 1.48 and the “Increased factor (enrichment factor/wild-type enrichment factor)” value was found to be 2.57.
For B15, in that order: 37.4 and 65.1.
With B16, the “Enrichment factor (percentage after sorting/percentage before sorting)” value worked out at 8.63 and the “Increased factor (enrichment factor/wild-type enrichment factor)” value was found to be 15.
For B17 the same measures were 42.7 and 74.3.
For B18, the “Enrichment factor (percentage after sorting/percentage before sorting)” value came out at 2.11 and the “Increased factor (enrichment factor/wild-type enrichment factor)” value was 3.67.
For B19, in that order: 5.27 and 9.19.
For the molecule B20, the “Enrichment factor (percentage after sorting/percentage before sorting)” value was 3.17 and the “Increased factor (enrichment factor/wild-type enrichment factor)” value was 5.52.

The next test shares this target. As to the kind of experiment: NGS after FACS sort of 3T3-displayed LibraryMix for biotin-FcγRIIB binding.
Consider B21, for which the “Enrichment factor (percentage after sorting/percentage before sorting)” value stood at 2.09 and the “Increased factor (enrichment factor/wild-type enrichment factor)” value turned out to be 2.8.
For B22, in that order: 12 and 16.
On to B23, for which the “Enrichment factor (percentage after sorting/percentage before sorting)” value turned out to be 1.52 and the “Increased factor (enrichment factor/wild-type enrichment factor)” value is 2.03.
For B24 the same measures were 217 and 290.
B25: the “Enrichment factor (percentage after sorting/percentage before sorting)” value turned out to be 1.65 and the “Increased factor (enrichment factor/wild-type enrichment factor)” value came to 2.21.
Turning to B26, the “Enrichment factor (percentage after sorting/percentage before sorting)” value came out at 32.8 and the “Increased factor (enrichment factor/wild-type enrichment factor)” value is 43.8.
For B27 the same measures were 9.23 and 12.3.
For B28, in that order: 2.18 and 2.91.
